Measurements from patent publication US20080019909A1, “Modulation of Programmed Necrosis” (priority 2003, published 2008).

Key:
FADD -/- I42 cells = assay: TNF cytotoxic assay (cell loss by PI exclusion on FACS), FADD -/- I42 cells; assay type: cell-based; settings: FADD -/- cells (I42) transiently transfected; TNF 12 hours; GFP+ cells
Experimental: Cells were stimulated with, TNF or anti-Fas antibody (CH11) for 12 hours and cell loss was analyzed on the GFP+ cells by PI exclusion on FACS.
FIG. 8F is a bar graph depicting the results of experiments in which FADD -/- I42 cells and caspase-8 -/- J3.2 cells (both are TNFR-2+) were stimulated with TNF in the presence or absence of zVAD-fmk for 16 hours.

caspase-8 -/- J3.2 cells = assay: TNF cytotoxic assay (cell loss by PI exclusion on FACS), caspase-8 -/- J3.2 cells; settings: for TNF-induced programmed necrosis, transfected kinase-inactive constructs: caspase-8 -/- J3.2 cells co-transfected with pEGFP-N1, 10 ng/ml rhTNFα, 16 hours, GFP positive cells
[1] = tested on: TNFR-2+ RIP -/- Jurkat cells (R1.1); assay: TNF cytotoxic assay (cell loss by PI exclusion on FACS), TNFR-2+ RIP -/- cells; assay type: cell-based; settings: TNFR-2+ RIP -/- cells reconstituted with RIP mutants, stimulated with TNF
Text: The results are representative of three experiments.

| Molecule | restoration of response to TNF (TNF killing) by transfected RIP constructs [1] | also measured |
| --- | --- | --- |
| full-length FADD: full-length FADD transiently transfected into FADD -/- cells (protein, UniProt Q13158 1-208, looked up, full-length, full-length FADD transiently transfected into FADD -/- cells) MDPFLVLLHSVSSSLSSSELTELKFLCLGRVGKRKLERVQSGLDLFSMLLEQNDLEPGHTELLRELLASLRRHDLLRRVDDFEAGAAAGAAPGEEDLCAAFNVICDNVGKDWRRLARQLKVSDTKIDSIEDRYPRNLTERVRESLRIWKNTEKENATVAHLVGALRSCQMNLVADLVQEVQQARDLQNRSGAMSPMSWNSDASTSEAS |  | TNF-induced programmed necrosis after reconstitution of FADD (FADD -/- I42 cells): suppression |
| kinase-inactive RIP: kinase inactive version of RIP (K45A mutation), expressed from transfected plasmid (protein, UniProt Q13546 1-671, looked up, variant K45A) Receptor-interacting …: MQPDMSLNVIKMKSSDFLESAELDSGGFGKVSLCFHRTQGLMIMATVYKGPNCIEHNEALLEEAKMMNRLRHSRVVKLLGVIIEEGKYSLVMEYMEKGNLMHVLKAEMSTPLSVKGRIILEIIEGMCYLHGKGVIHKDLKPENILVDNDFHIKIADLGLASFKMWSKLNNEEHNELREVDGTAKKNGGTLYYMAPEHLNDVNAKPTEKSDVYSFAVVLWAIFANKEPYENAICEQQLIMCIKSGNRPDVDDITEYCPREIISLMKLCWEANPEARPTFPGIEEKFRPFYLSQLEESVEEDVKSLKKEYSNENAVVKRMQSLQLDCVAVPSSRSNSATEQPGSLHSSQGLGMGPVEESWFAPSLEHPQEENEPSLQSKLQDEANYHLYGSRMDRQTKQQPRQNVAYNREEERRRRVSHDPFAQQRPYENFQNTEGKGTAYSSAASHGNAVHQPSGLTSQPQVLYQNNGLYSSHGFGTRPLDPGTAGPRVWYRPIPSHMPSLHNIPVPETNYLGNTPTMPFSSLPPTDESIKYTIYNSTGIQIGAYNYMEIGGTSSSLLDSTNTNFKEEPAAKYQAIFDNTTSLTDKHLDPIRENLGKHWKNCARKLGFTQSQIDEIDHDYERDGLKEKVYQMLQKWVMREGIKGATVGKLAQALHQCSRIDLLSSLIYVSQN | restored | TNF-induced programmed necrosis, transfected kinase-inactive constructs (caspase-8 -/- J3.2 cells): strongly suppressed |
| kinase-inactive form of apoptosis signaling kinase ASK1: kinase inactive version of ASK1, expressed from transfected plasmid (protein, UniProt Q99683 1-1374, looked up, variant K709R) Mitogen-activated protein …: MSTEADEGITFSVPPFAPSGFCTIPEGGICRRGGAAAVGEGEEHQLPPPPPGSFWNVESAAAPGIGCPAATSSSSATRGRGSSVGGGSRRTTVAYVINEASQGQLVVAESEALQSLREACETVGATLETLHFGKLDFGETTVLDRFYNADIAVVEMSDAFRQPSLFYHLGVRESFSMANNIILYCDTNSDSLQSLKEIICQKNTMCTGNYTFVPYMITPHNKVYCCDSSFMKGLTELMQPNFELLLGPICLPLVDRFIQLLKVAQASSSQYFRESILNDIRKARNLYTGKELAAELARIRQRVDNIEVLTADIVINLLLSYRDIQDYDSIVKLVETLEKLPTFDLASHHHVKFHYAFALNRRNLPGDRAKALDIMIPMVQSEGQVASDMYCLVGRIYKDMFLDSNFTDTESRDHGASWFKKAFESEPTLQSGINYAVLLLAAGHQFESSFELRKVGVKLSSLLGKKGNLEKLQSYWEVGFFLGASVLANDHMRVIQASEKLFKLKTPAWYLKSIVETILIYKHFVKLTTEQPVAKQELVDFWMDFLVEATKTDVTVVRFPVLILEPTKIYQPSYLSINNEVEEKTISIWHVLPDDKKGIHEWNFSASSVRGVSISKFEERCCFLYVLHNSDDFQIYFCTELHCKKFFEMVNTITEEKGRSTEEGDCESDLLEYDYEYDENGDRVVLGKGTYGIVYAGRDLSNQVRIAIREIPERDSRYSQPLHEEIALHKHLKHKNIVQYLGSFSENGFIKIFMEQVPGGSLSALLRSKWGPLKDNEQTIGFYTKQILEGLKYLHDNQIVHRDIKGDNVLINTYSGVLKISDFGTSKRLAGINPCTETFTGTLQYMAPEIIDKGPRGYGKAADIWSLGCTIIEMATGKPPFYELGEPQAAMFKVGMFKVHPEIPESMSAEAKAFILKCFEPDPDKRACANDLLVDEFLKVSSKKKKTQPKLSALSAGSNEYLRSISLPVPVLVEDTSSSSEYGSVSPDTELKVDPFSFKTRAKSCGERDVKGIRTLFLGIPDENFEDHSAPPSPEEKDSGFFMLRKDSERRATLHRILTEDQDKIVRNLMESLAQGAEEPKLKWEHITTLIASLREFVRSTDRKIIATTLSKLKLELDFDSHGISQVQVVLFGFQDAVNKVLRNHNIKPHWMFALDSIIRKAVQTAITILVPELRPHFSLASESDTADQEDLDVEDDHEEQPSNQTVRRPQAVIEDAVATSGVSTLSSTVSHDSQSAHRSLNVQLGRMKIETNRLLEELVRKEKELQALLHRAIEEKDQEIKHLKLKSQPIEIPELPVFHLNSSGTNTEDSELTDWLRVNGADEDTISRFLAEDYTLLDVLYYVTRDDLKCLRLRGGMLCTLWKAIIDFRNKQT |  | TNF-induced programmed necrosis, transfected kinase-inactive constructs (caspase-8 -/- J3.2 cells): not |
| RIPn: N-terminal cleavage product of RIP (amino acids 1-324) (protein, UniProt Q13546 1-324, looked up, fragment) MQPDMSLNVIKMKSSDFLESAELDSGGFGKVSLCFHRTQGLMIMKTVYKGPNCIEHNEALLEEAKMMNRLRHSRVVKLLGVIIEEGKYSLVMEYMEKGNLMHVLKAEMSTPLSVKGRIILEIIEGMCYLHGKGVIHKDLKPENILVDNDFHIKIADLGLASFKMWSKLNNEEHNELREVDGTAKKNGGTLYYMAPEHLNDVNAKPTEKSDVYSFAVVLWAIFANKEPYENAICEQQLIMCIKSGNRPDVDDITEYCPREIISLMKLCWEANPEARPTFPGIEEKFRPFYLSQLEESVEEDVKSLKKEYSNENAVVKRMQSLQLD | failed to restore |  |
| wild-type RIP: wild-type receptor-interacting protein expressed in RIP -/- cells (protein, UniProt Q13546 1-671, looked up) Receptor-interacting …: MQPDMSLNVIKMKSSDFLESAELDSGGFGKVSLCFHRTQGLMIMKTVYKGPNCIEHNEALLEEAKMMNRLRHSRVVKLLGVIIEEGKYSLVMEYMEKGNLMHVLKAEMSTPLSVKGRIILEIIEGMCYLHGKGVIHKDLKPENILVDNDFHIKIADLGLASFKMWSKLNNEEHNELREVDGTAKKNGGTLYYMAPEHLNDVNAKPTEKSDVYSFAVVLWAIFANKEPYENAICEQQLIMCIKSGNRPDVDDITEYCPREIISLMKLCWEANPEARPTFPGIEEKFRPFYLSQLEESVEEDVKSLKKEYSNENAVVKRMQSLQLDCVAVPSSRSNSATEQPGSLHSSQGLGMGPVEESWFAPSLEHPQEENEPSLQSKLQDEANYHLYGSRMDRQTKQQPRQNVAYNREEERRRRVSHDPFAQQRPYENFQNTEGKGTAYSSAASHGNAVHQPSGLTSQPQVLYQNNGLYSSHGFGTRPLDPGTAGPRVWYRPIPSHMPSLHNIPVPETNYLGNTPTMPFSSLPPTDESIKYTIYNSTGIQIGAYNYMEIGGTSSSLLDSTNTNFKEEPAAKYQAIFDNTTSLTDKHLDPIRENLGKHWKNCARKLGFTQSQIDEIDHDYERDGLKEKVYQMLQKWVMREGIKGATVGKLAQALHQCSRIDLLSSLIYVSQN | potently restored |  |
| RIP-D324A: non-cleavable mutant of RIP (protein, UniProt Q13546 1-671, looked up, variant D324A) Receptor-interacting …: MQPDMSLNVIKMKSSDFLESAELDSGGFGKVSLCFHRTQGLMIMKTVYKGPNCIEHNEALLEEAKMMNRLRHSRVVKLLGVIIEEGKYSLVMEYMEKGNLMHVLKAEMSTPLSVKGRIILEIIEGMCYLHGKGVIHKDLKPENILVDNDFHIKIADLGLASFKMWSKLNNEEHNELREVDGTAKKNGGTLYYMAPEHLNDVNAKPTEKSDVYSFAVVLWAIFANKEPYENAICEQQLIMCIKSGNRPDVDDITEYCPREIISLMKLCWEANPEARPTFPGIEEKFRPFYLSQLEESVEEDVKSLKKEYSNENAVVKRMQSLQLACVAVPSSRSNSATEQPGSLHSSQGLGMGPVEESWFAPSLEHPQEENEPSLQSKLQDEANYHLYGSRMDRQTKQQPRQNVAYNREEERRRRVSHDPFAQQRPYENFQNTEGKGTAYSSAASHGNAVHQPSGLTSQPQVLYQNNGLYSSHGFGTRPLDPGTAGPRVWYRPIPSHMPSLHNIPVPETNYLGNTPTMPFSSLPPTDESIKYTIYNSTGIQIGAYNYMEIGGTSSSLLDSTNTNFKEEPAAKYQAIFDNTTSLTDKHLDPIRENLGKHWKNCARKLGFTQSQIDEIDHDYERDGLKEKVYQMLQKWVMREGIKGATVGKLAQALHQCSRIDLLSSLIYVSQN | potently restored |  |
| RIPc: C-terminal fragment of RIP (amino acids 325-671) (protein, UniProt Q13546 325-671, looked up, fragment) CVAVPSSRSNSATEQPGSLHSSQGLGMGPVEESWFAPSLEHPQEENEPSLQSKLQDEANYHLYGSRMDRQTKQQPRQNVAYNREEERRRRVSHDPFAQQRPYENFQNTEGKGTAYSSAASHGNAVHQPSGLTSQPQVLYQNNGLYSSHGFGTRPLDPGTAGPRVWYRPIPSHMPSLHNIPVPETNYLGNTPTMPFSSLPPTDESIKYTIYNSTGIQIGAYNYMEIGGTSSSLLDSTNTNFKEEPAAKYQAIFDNTTSLTDKHLDPIRENLGKHWKNCARKLGFTQSQIDEIDHDYERDGLKEKVYQMLQKWVMREGIKGATVGKLAQALHQCSRIDLLSSLIYVSQN | restored |  |
| p35: known apoptosis inhibitor, transfected plasmid (protein, UniProt P08160 1-299, looked up) Early 35 kDa protein: MCVIFPVEIDVSQTIIRDCQVDKQTRELVYINKIMNTQLTKPVLMMFNISGPIRSVTRKNNNLRDRIKSKVDEQFDQLERDYSDQMDGFHDSIKYFKDEHYSVSCQNGSVLKSKFAKILKSHDYTDKKSIEAYEKYCLPKLVDERNDYYVAVCVLKPGFENGSNQVLSFEYNPIGNKVIVPFAHEINDTGLYEYDVVAYVDSVQFDGEQFEEFVQSLILPSSFKNSEKVLYYNEASKNKSMIYKALEFTTESSWGKSEKYNWKIFCNGFIYDKKSKVLYVKLHNVTSALNKNVILNTIK |  | TNF-induced programmed necrosis, transfected apoptosis inhibitors (caspase-8 -/- J3.2 cells; caspase 8 -/- J3.2 cells transfected with plasmids, 12 hours stimulation with TNF): failed to confer protection |
